Measured values taken from paper PMC9405023, “NRF2 Regulates Cystathionine Gamma-Lyase Expression and Activity in Primary Airway Epithelial Cells Infected with Respiratory Syncytial Virus”.

Target: T1, recombinant NRF2 (rNRF2) (UniProt Q16236 1-605)
T1 sequence: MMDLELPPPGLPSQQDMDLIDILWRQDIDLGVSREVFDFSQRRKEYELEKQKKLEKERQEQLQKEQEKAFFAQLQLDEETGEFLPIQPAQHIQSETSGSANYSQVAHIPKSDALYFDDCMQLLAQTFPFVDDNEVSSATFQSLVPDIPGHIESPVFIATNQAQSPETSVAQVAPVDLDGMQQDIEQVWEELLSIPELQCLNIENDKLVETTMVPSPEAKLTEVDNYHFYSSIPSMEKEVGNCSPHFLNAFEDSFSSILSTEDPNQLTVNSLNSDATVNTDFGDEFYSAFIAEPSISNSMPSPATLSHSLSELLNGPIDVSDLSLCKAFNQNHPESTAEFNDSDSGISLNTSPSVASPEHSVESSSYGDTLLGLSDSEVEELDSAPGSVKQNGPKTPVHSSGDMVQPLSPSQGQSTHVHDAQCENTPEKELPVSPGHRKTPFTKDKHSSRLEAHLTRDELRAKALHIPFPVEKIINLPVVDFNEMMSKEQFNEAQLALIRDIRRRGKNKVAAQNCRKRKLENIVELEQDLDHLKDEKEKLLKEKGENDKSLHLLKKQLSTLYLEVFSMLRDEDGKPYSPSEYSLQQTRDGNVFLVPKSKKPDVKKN
Experiment: EMSA; C1 and C2 complexes; 10 mM Tris-HCl pH 8.0, 50 mM KCl, 50 mM NaCl, 1 mM MgCl2, 1 mM EDTA, 5 mM DTT, 2.5% glycerol, 0.3 ug poly dI-dC, 15 fmol probe, 6-8 ug nuclear extract, 10 uL, 15 min, room temperature
Details: protein: recombinant; label: 32P (probe); blunt

B1: -156/-120 CSE wild type (WT) (dsDNA)
DNA 1: CGGTCGCGGTGACGTTTCAGGCAACGCCTCTGCTGT
DNA 2: ACAGCAGAGGCGTTGCCTGAAACGTCACCGCGACCG
B1: binds.
